Laboratory results as given in patent US12576154B2, “Conjugates of PSMA-binding moieties with cytotoxic agents” (PHILOCHEM AG, priority 2022, dated 2026).

Key:
HT1080.hPSMA xenografts [1] = assay: Comparative therapy experiment in mice bearing HT1080.hPSMA xenografts (tumor volume); assay type: in vivo; details: 250 nmol/kg i.v. on days 8, 10, 12 after tumor implantation, n=5
Description: (§1) HT1080.hPSMA tumor cells were grown to 90% confluence and detached with Trypsin-EDTA 0.05%. Cells were resuspended in Hank's Balanced Salt Solution (HBSS) at a 5×10^7 cells/mL density. 100 μL of HT1080.hPSMA cells (5×10^6 cells) were injected subcutaneously in the right flank of female athymic Balb/c AnNRj-Foxn1 mice (6 to 8 weeks of age). Tumors were grown until volumes of −100 mm^3.
Tumor-bearing mice were randomized into groups of 5 and 0.1 mL of 50 μM solutions (2% DMSO, PBS, 250 nmol/kg) of the four conjugates (1 to 4), or saline solution (0.9% NaCl) was injected intravenously three times with 1-day break in between (days 8, 10, and 12 after tumor implantation).

HT1080.hPSMA tumor = assay: MMAE release from conjugates in HT1080.hPSMA tumor model (comparison and timepoint study); assay type: in vivo, mice; details: 250 nmol/kg; for MMAE release compared with Conjugate 1: 24 h after intravenous injection, HT1080.hPSMA tumor model
Description: HT1080.hPSMA tumor cells were grown to 90% confluence and detached with Trypsin-EDTA 0.05%. Cells were resuspended in Hank's Balanced Salt Solution (HBSS) at a density of 5×10^7 cells/mL. 100 μL of HT1080.hPSMA cells (5×10^6 cells) were injected subcutaneously in the right flank of female athymic Balb/c AnNRj-Foxn1 mice (6 to 8 weeks of age). Tumors were grown until ˜250 mm^3 volume (average).
Comparison study: 0.1 mL of 50 μM solutions (2% DMSO, PBS, 250 nmol/kg) of the four conjugates (1 to 4) were injected intravenously. The animals were sacrificed in groups of 3 after 24 h, and blood and the following organs were extracted: HT1080.hPSMA tumor, heart, lungs, liver, kidney, spleen, stomach. The blood fraction was centrifuged, and the plasma (supernatant) was extracted. The organs were stored at −80° C. before being used for further analysis.
Timepoint study: 0.1 mL of a 50 μM solution (2% DMSO, PBS, 250 nmol/kg) of conjugate 1 was injected intravenously into the tail vein of the mice. The animals were sacrificed in groups of 3 after 6 h, 24 h, 48 h, and 72 h, and blood and the following organs were extracted: HT1080.hPSMA tumor, heart, lungs, liver, kidney, spleen, stomach. The blood fraction was centrifuged, and the plasma (supernatant) was extracted. The organs were stored at −80° C. before being used for further analysis.
Frozen plasma (50 μL) and mouse tissues (˜50 mg) were thawed, and 500 μL of PBS was added. Samples were kept on ice, and 50 μL solution of internal standard (d8-MMAE, 50 nM) was added. Samples were then homogenized at 4° C. with a tissue lyser for 2 minutes at 30 Hz for 4 cycles. After homogenization, samples were centrifuged (21'000 g, 10 min). Subsequently, 100 μL of supernatants were collected and added to 900 μL of acetonitrile (ACN) to induce protein precipitation. After centrifugation (21'000 g, 10 min), 800 μL of supernatants were collected and dried at room temperature with a vacuum centrifuge. Pellets were then resuspended in 20 μL of an aqueous solution containing 3% ACN and 0.1% of HCOOH, and 5 μL were injected into the UHPLC-MS system. Chromatographic separation was carried out on a Hypersil Gold C18 column (100 mm×2.1 mm, 1.9 μm particle size, 175 Å pore size) column temperature was set at 50° C. and a flow rate of 700 μL/min with a gradient program from 95% A (water+0.1% HCOOH), 5% B (ACN+0.1% HCOOH) to 35% of A in 2.5 minutes, from 35% A to 5% A in 0.4 minutes and 5% A was kept for 1.3 minutes before reconditioning at 95% A. The LC system was coupled to a Q-Exactive mass spectrometer via an Ion Max HESI Source. Ionization was carried out with a spray voltage of 3.5 kV; Sheath gas 40 units; Aux gas 10 units; capillary temperature of 380° C.; Aux gas temperature 450° C.; S-lens RF level 60. The mass spectrometer was operating in targeted Single Ion Monitoring mode (t-SIM) following the molecular ion 718.5113 m/z. The detector was working in positive ionization mode with the following parameters: resolution 70'000 (FWHM at 200 m/z); AGC target of 5×10^4; maximum injection time of 200 ms; isolation window 14 m/z; isolation offset 5 m/z. Peak areas of analytes and internal standards were integrated, and corresponding ratios were calculated. The ratios were then transformed into pmol/g of wet tissue using single-concentration external calibration points and corrected by the total weight of the sample analysed. The percentage of injected dose per gram (% ID/g) was finally calculated by normalizing the value based on the total dose injected into the mouse. Data analysis was performed with Skyline v22.2.0.351.

LNCaP tumor (PSMA+) = assay: MMAE release from conjugates in LNCaP tumor model (biodistribution by LC-MS); assay type: in vivo, mice; details: 24 h after intravenous injection, LNCaP tumor model, n=3
Description: LNCaP tumor cells were grown to 80% confluence and detached with Trypsin-EDTA 0.05%. Cells were resuspended in PBS at a density of 30×10^6 cells/mL. The cell suspension was further diluted 1:1 with Matrigel. 200 μL of LNCaP cells (3×10^6 cells) were injected subcutaneously in the left flank of female athymic Balb/c AnNRj-Foxn1 mice (6 to 8 weeks of age). Tumors were grown until volumes of 200-300 mm^3 were observed.
0.1 ml of 50 μM solutions (2% DMSO, PBS) of the four Conjugates (1-4) were injected intravenously into 4 of the mice (1 mouse per SMDC). The animals were sacrificed after 24 h and the following organs were extracted: blood, LNCaP tumor (PSMA+), heart, lungs, liver, kidney, spleen, stomach. The blood fraction was centrifuged, and the plasma (supernatant) was extracted. The organs were preserved at −80° C. before being used for further analysis.
Frozen plasma or mouse tissues (˜50 mg) were thawed and treated with 600 μL of an aqueous solution containing 95% acetonitrile (ACN), and 0.1% HCOOH were added to induce protein precipitation. 50 μL of a solution of d8-MMAE, 50 nM) was added as internal standard. Samples were then homogenized with a tissue lyser for 15 minutes at 30 Hz. After homogenization, samples were centrifuged (21'000 g for 10 minutes). The supernatant was collected and dried at room temperature with a rotary evaporator. Pellets were then resuspended in 1 mL of an aqueous solution containing 3% ACN and 0.1% of TFA and subsequently purified on Oasis HLB SPE columns. Eluates were dried under vacuum at room temperature. […] Peak areas of analytes and internal standards were integrated, and corresponding ratios were calculated. The ratios were then transformed into pmol/g of wet tissue using single-concentration external calibration points and corrected by the total weight of the sample analysed. The percentage of injected dose per gram (% ID/g) was finally calculated by normalizing the value based on the total dose injected into the mouse. […]

HT1080.hPSMA xenografts [2] = assay: Payload study and combination therapy with L19-IL2 in HT1080.hPSMA tumor model (tumor volume); assay type: in vivo, mice; details: conjugates 250 nmol/kg i.v. days 7 and 11; L19-IL2 2.5 mg/kg i.v. days 8, 10, 12; n=3/4
Description: as §1, with “until an average” for “until”, “˜100 mm^3 was reached.” for “−100 mm^3.”
Tumor-bearing mice were randomized into groups of 3 or 4 animals. A 50 μM solution (2% DMSO, 250 nmol/kg; 100 μL) of Conjugate 1, 5, or 6, L19-IL2 (SEQ ID NO: 10, 0.5 mg/mL, 2.5 mg/kg; 100 μL), PBS (100 μL), or L19-IL2 buffer (NaH2PO4 6.7 mM, NaCl 20 mM, KCl 1.8 mM, Mannitol 133 mM, Tween80 0.1% v/v, Glycerol 1% w/v; 100 μL) was injected intravenously (i.e., systemic administration through tail-vein) with the following schedule:
Groups of Conjugates 1, 5, or 6: two separate injections with a 3-day break in between (day 7 and day 11 after tumor implantation).
L19-IL2 group: three separate injections with a 1-day break in between (day 8, day 10, and day 12 after tumor implantation).
Combination therapy groups: two separate injections of Conjugate 1, 5, or 6 with a 3-day break in between (day 7 and day 11 after tumor implantation) and three separate injections of L19-IL2 with a 1-day break in between (day 8, day 10, and day 12 after tumor implantation). […]

Compound	Therapeutic efficacy (tumor volume change) (HT1080.hPSMA xenografts [1])	MMAE release compared with Conjugate 1 (HT1080.hPSMA tumor)	MMAE release in tumor (HT1080.hPSMA tumor; 24 hours after intravenous injection, HT1080.hPSMA tumor, n=3) [% ID/g]	MMAE release, experiment repeated with three mice each (LNCaP tumor (PSMA+))	In vivo anti-tumor activity, monotherapy (tumor volume) (HT1080.hPSMA xenografts [2])
CC[C@H](C)[C@@H]([C@@H](CC(=O)N1CCC[C@H]1[C@H](OC)[C@@H](C)C(=O)N[C@H](C)[C@@H](O)c1ccccc1)OC)N(C)C(=O)[C@@H](NC(=O)[C@H](C(C)C)N(C)C(=O)OCc1ccc(NC(=O)[C@H](CCCNC(N)=O)NC(=O)[C@@H](NC(=O)CCCCCN2C(=O)CC(SC[C@H](N)C(=O)NCCCCCC(=O)NC[C@H]3CC[C@H](C(=O)N[C@@H](Cc4ccc5ccccc5c4)C(=O)NCCCC[C@H](NC(=O)N[C@@H](CCC(=O)O)C(=O)O)C(=O)O)CC3)C2=O)C(C)C)cc1)C(C)C (stereo partly drawn) [Conjugate 2]	tumor growth retardation but did not lead to shrinkage of the tumor mass	significantly lower or no release of MMAE	1.7	confirmed	
CC[C@H](C)[C@@H]([C@@H](CC(=O)N1CCC[C@H]1[C@H](OC)[C@@H](C)C(=O)N[C@H](C)[C@@H](O)c1ccccc1)OC)N(C)C(=O)[C@@H](NC(=O)[C@H](C(C)C)N(C)C(=O)OCCSSC[C@H](N)C(=O)NCCCCCC(=O)NC[C@H]1CC[C@H](C(=O)N[C@@H](Cc2ccc3ccccc3c2)C(=O)NCCCC[C@H](NC(=O)N[C@@H](CCC(=O)O)C(=O)O)C(=O)O)CC1)C(C)C [Conjugate 3]	didn't display any therapeutic efficacy	significantly lower or no release of MMAE			
CC[C@H](C)[C@@H]([C@@H](CC(=O)N1CCC[C@H]1[C@H](OC)[C@@H](C)C(=O)N[C@H](C)[C@@H](O)c1ccccc1)OC)N(C)C(=O)[C@@H](NC(=O)[C@H](C(C)C)N(C)C(=O)CCCCCN1C(=O)CC(SC[C@H](N)C(=O)NCCCCCC(=O)NC[C@H]2CC[C@H](C(=O)N[C@@H](Cc3ccc4ccccc4c3)C(=O)NCCCC[C@H](NC(=O)N[C@@H](CCC(=O)O)C(=O)O)C(=O)O)CC2)C1=O)C(C)C (stereo partly drawn) [Conjugate 4]	didn't display any therapeutic efficacy	significantly lower or no release of MMAE			
L19-IL2: Immunocytokine: L19-derived scFv (binds ED-B domain of fibronectin) linked to IL2, SEQ ID NO: 10 [Conjugate L19-IL2]					only a slight tumor growth retardation
